Measurements published in publication PMC5423696.

Target: LAMP1_(distal)-Fc (human)
Assay: SPR

GP1_(LASV)-Fc (from UniProt P08669 75-237) (Fc fusion)
Kd: 15 nM
